{
  "source": "the Human Domainome abundance scans (Beltran et al. 2025)",
  "parents": {"B1": {"name": "POU domain, class 3, transcription factor 2, residues 356 to 411; numbered along this chain, P20265 (parent)", "chain": "KKRTSIEVSVKGALESHFLKCPKPSAQEITSLADSLQLEKEVVRVWFCNRRQKEKR"}},
  "note": "± gives the uncertainty stated by the source.",
  "data": [
    {"variants_of": "B1", "assay": "abundance fitness (aPCA) (normalised: wild type 0, dead -1); higher = more abundant; growth selection in yeast, the domain comes from the species named", "conditions": "Homo sapiens", "values": [
      {"variant": "KKRTSIEVSVKGYLESHFLKCPKPSAQEITSLADSLQLEKEVVRVWFCNRRQKEKR", "note": "[A13Y]", "abundance fitness": "-0.142 ± 0.12"},
      {"variant": "KKRTSIEVSVKGKLESHFLKCPKPSAQEITSLADSLQLEKEVVRVWFCNRRQKEKR", "note": "[A13K]", "abundance fitness": "0.081 ± 0.15"},
      {"variant": "KKRTSIEVSVKGTLESHFLKCPKPSAQEITSLADSLQLEKEVVRVWFCNRRQKEKR", "note": "[A13T]", "abundance fitness": "-0.064 ± 0.12"},
      {"variant": "KKRTSIEVSVKGRLESHFLKCPKPSAQEITSLADSLQLEKEVVRVWFCNRRQKEKR", "note": "[A13R]", "abundance fitness": "0.083 ± 0.08"},
      {"variant": "KKRTSIEVSVKGALEEHFLKCPKPSAQEITSLADSLQLEKEVVRVWFCNRRQKEKR", "note": "[S16E]", "abundance fitness": "-0.015 ± 0.1"},
      {"variant": "KKRTSIEVSVKGALEDHFLKCPKPSAQEITSLADSLQLEKEVVRVWFCNRRQKEKR", "note": "[S16D]", "abundance fitness": "-0.193 ± 0.15"},
      {"variant": "KKRTSIEVSVKGALETHFLKCPKPSAQEITSLADSLQLEKEVVRVWFCNRRQKEKR", "note": "[S16T]", "abundance fitness": "-0.034 ± 0.11"},
      {"variant": "KKRTSIEVSVKGALEIHFLKCPKPSAQEITSLADSLQLEKEVVRVWFCNRRQKEKR", "note": "[S16I]", "abundance fitness": "-0.368 ± 0.18"},
      {"variant": "KKRTSIEVSVKGALEHHFLKCPKPSAQEITSLADSLQLEKEVVRVWFCNRRQKEKR", "note": "[S16H]", "abundance fitness": "-0.21 ± 0.16"},
      {"variant": "KKRTSIEVSVKGALEKHFLKCPKPSAQEITSLADSLQLEKEVVRVWFCNRRQKEKR", "note": "[S16K]", "abundance fitness": "0.12 ± 0.13"},
      {"variant": "KKRTSIEVSVKGALEAHFLKCPKPSAQEITSLADSLQLEKEVVRVWFCNRRQKEKR", "note": "[S16A]", "abundance fitness": "0.097 ± 0.11"},
      {"variant": "KKRTSIEVSVKGALEQHFLKCPKPSAQEITSLADSLQLEKEVVRVWFCNRRQKEKR", "note": "[S16Q]", "abundance fitness": "0.073 ± 0.15"},
      {"variant": "KKRTSIEVSVKGALEMHFLKCPKPSAQEITSLADSLQLEKEVVRVWFCNRRQKEKR", "note": "[S16M]", "abundance fitness": "-0.06 ± 0.12"},
      {"variant": "KKRTSIEVSVKGALEPHFLKCPKPSAQEITSLADSLQLEKEVVRVWFCNRRQKEKR", "note": "[S16P]", "abundance fitness": "-0.539 ± 0.14"},
      {"variant": "KKRTSIEVSVKGALECHFLKCPKPSAQEITSLADSLQLEKEVVRVWFCNRRQKEKR", "note": "[S16C]", "abundance fitness": "-0.226 ± 0.12"},
      {"variant": "KKRTSIEVSVKGALENHFLKCPKPSAQEITSLADSLQLEKEVVRVWFCNRRQKEKR", "note": "[S16N]", "abundance fitness": "-0.297 ± 0.15"},
      {"variant": "KKRTSIEVSVKGALERHFLKCPKPSAQEITSLADSLQLEKEVVRVWFCNRRQKEKR", "note": "[S16R]", "abundance fitness": "-0.055 ± 0.072"},
      {"variant": "KKRTSIEVSVKNALESHFLKCPKPSAQEITSLADSLQLEKEVVRVWFCNRRQKEKR", "note": "[G12N]", "abundance fitness": "-0.153 ± 0.16"},
      {"variant": "KKRTSIEVSVKQALESHFLKCPKPSAQEITSLADSLQLEKEVVRVWFCNRRQKEKR", "note": "[G12Q]", "abundance fitness": "-0.053 ± 0.13"},
      {"variant": "KKRTSIEVSVKTALESHFLKCPKPSAQEITSLADSLQLEKEVVRVWFCNRRQKEKR", "note": "[G12T]", "abundance fitness": "0.21 ± 0.093"},
      {"variant": "KKRTSIEVSVKHALESHFLKCPKPSAQEITSLADSLQLEKEVVRVWFCNRRQKEKR", "note": "[G12H]", "abundance fitness": "-0.015 ± 0.099"},
      {"variant": "KKRTSIEVSVKEALESHFLKCPKPSAQEITSLADSLQLEKEVVRVWFCNRRQKEKR", "note": "[G12E]", "abundance fitness": "0.079 ± 0.13"},
      {"variant": "KKRTSIEVSVKRALESHFLKCPKPSAQEITSLADSLQLEKEVVRVWFCNRRQKEKR", "note": "[G12R]", "abundance fitness": "-0.045 ± 0.084"},
      {"variant": "KKRTSIEVSVKMALESHFLKCPKPSAQEITSLADSLQLEKEVVRVWFCNRRQKEKR", "note": "[G12M]", "abundance fitness": "0.068 ± 0.14"},
      {"variant": "KKRTSIEVSVKDALESHFLKCPKPSAQEITSLADSLQLEKEVVRVWFCNRRQKEKR", "note": "[G12D]", "abundance fitness": "-0.027 ± 0.093"},
      {"variant": "KKRTSIEVSVKLALESHFLKCPKPSAQEITSLADSLQLEKEVVRVWFCNRRQKEKR", "note": "[G12L]", "abundance fitness": "0.117 ± 0.084"},
      {"variant": "KKRTSIEVSVKYALESHFLKCPKPSAQEITSLADSLQLEKEVVRVWFCNRRQKEKR", "note": "[G12Y]", "abundance fitness": "-0.058 ± 0.15"},
      {"variant": "KKRTSIEVSVKKALESHFLKCPKPSAQEITSLADSLQLEKEVVRVWFCNRRQKEKR", "note": "[G12K]", "abundance fitness": "-0.056 ± 0.15"},
      {"variant": "KKRTSIEVSVKCALESHFLKCPKPSAQEITSLADSLQLEKEVVRVWFCNRRQKEKR", "note": "[G12C]", "abundance fitness": "0.039 ± 0.098"},
      {"variant": "KKRTSIEVSVKAALESHFLKCPKPSAQEITSLADSLQLEKEVVRVWFCNRRQKEKR", "note": "[G12A]", "abundance fitness": "0.124 ± 0.093"},
      {"variant": "KKRTSIEVSVKPALESHFLKCPKPSAQEITSLADSLQLEKEVVRVWFCNRRQKEKR", "note": "[G12P]", "abundance fitness": "-0.152 ± 0.11"},
      {"variant": "KKRTSIEVSVKVALESHFLKCPKPSAQEITSLADSLQLEKEVVRVWFCNRRQKEKR", "note": "[G12V]", "abundance fitness": "0.22 ± 0.086"},
      {"variant": "KKRTSIEVSVKIALESHFLKCPKPSAQEITSLADSLQLEKEVVRVWFCNRRQKEKR", "note": "[G12I]", "abundance fitness": "0.193 ± 0.13"},
      {"variant": "KKRTSIEVSVKSALESHFLKCPKPSAQEITSLADSLQLEKEVVRVWFCNRRQKEKR", "note": "[G12S]", "abundance fitness": "0.097 ± 0.082"},
      {"variant": "KKRTSIEVSVKFALESHFLKCPKPSAQEITSLADSLQLEKEVVRVWFCNRRQKEKR", "note": "[G12F]", "abundance fitness": "-0.085 ± 0.17"},
      {"variant": "KKRTSIEVSVIGALESHFLKCPKPSAQEITSLADSLQLEKEVVRVWFCNRRQKEKR", "note": "[K11I]", "abundance fitness": "0.074 ± 0.13"},
      {"variant": "KKRTSIEVSVYGALESHFLKCPKPSAQEITSLADSLQLEKEVVRVWFCNRRQKEKR", "note": "[K11Y]", "abundance fitness": "-0.239 ± 0.25"},
      {"variant": "KKRTSIEVSVVGALESHFLKCPKPSAQEITSLADSLQLEKEVVRVWFCNRRQKEKR", "note": "[K11V]", "abundance fitness": "0.026 ± 0.084"},
      {"variant": "KKRTSIEVSVPGALESHFLKCPKPSAQEITSLADSLQLEKEVVRVWFCNRRQKEKR", "note": "[K11P]", "abundance fitness": "-0.269 ± 0.13"},
      {"variant": "KKRTSIEVSVTGALESHFLKCPKPSAQEITSLADSLQLEKEVVRVWFCNRRQKEKR", "note": "[K11T]", "abundance fitness": "-0.027 ± 0.11"},
      {"variant": "KKRTSIEVSVGGALESHFLKCPKPSAQEITSLADSLQLEKEVVRVWFCNRRQKEKR", "note": "[K11G]", "abundance fitness": "-0.134 ± 0.091"},
      {"variant": "KKRTSIEVSVLGALESHFLKCPKPSAQEITSLADSLQLEKEVVRVWFCNRRQKEKR", "note": "[K11L]", "abundance fitness": "0.03 ± 0.087"},
      {"variant": "KKRTSIEVSVRGALESHFLKCPKPSAQEITSLADSLQLEKEVVRVWFCNRRQKEKR", "note": "[K11R]", "abundance fitness": "-0.126 ± 0.082"},
      {"variant": "KKRTSIEVSVNGALESHFLKCPKPSAQEITSLADSLQLEKEVVRVWFCNRRQKEKR", "note": "[K11N]", "abundance fitness": "-0.143 ± 0.15"},
      {"variant": "KKRTSIEVSVHGALESHFLKCPKPSAQEITSLADSLQLEKEVVRVWFCNRRQKEKR", "note": "[K11H]", "abundance fitness": "0.031 ± 0.12"},
      {"variant": "KKRTSIEVSVMGALESHFLKCPKPSAQEITSLADSLQLEKEVVRVWFCNRRQKEKR", "note": "[K11M]", "abundance fitness": "-0.041 ± 0.12"},
      {"variant": "KKRTSIEVSVWGALESHFLKCPKPSAQEITSLADSLQLEKEVVRVWFCNRRQKEKR", "note": "[K11W]", "abundance fitness": "-0.039 ± 0.13"}
    ]}
  ]
}
